# Source: patent US7241873B2, “Recombinant anti-osteopontin antibody and use thereof” (Juridical Foundation the Chemo-sero-therapeutic Research …, priority 2001, dated 2007)
# Key:
# [1] = tested on: mouse collagen arthritis model; experiment: Mouse collagen arthritis model (arthritogenic antibody cocktail/LPS); format: in vivo; settings: text summary of Tables 6 to 9
# Protocol: For arthritis induction, an arthritogenic antibody cocktail (under the trade name of a cocktail for arthritis, Arthrogen-CIA® mAb, Arthritogenic mAb cocktail; manufactured by Iwai Chemical Pharmaceutical Co., Ltd.) recognizing four epitopes specific to collagen was used. To a mouse was intravenously administered the arthritogenic cocktail; 3 days later, LPS (100 μg) was intraperitoneally administered to thereby elicit arthritis. Arthritis was observed on day 3 after LPS dosing, which reached maximum on day 6.
# Immediately before LPS dosing and 3 days later, the M5 antibody was intravenously administered at a dose of 40 μg, 150 μg or 400 μg. As the control group, a rabbit IgG-dosed group (at a dose of 400 μg) was arranged. Additionally, the anti-mouse TNF-α antibody was intravenously administered at a dose of 200 μg/mouse immediately before LPS administration and 3 days later. As the control group, a rat IgG-dosed group (at a dose of 200 μg) was arranged. Further, MTX was orally given (at a dose of 3.2 mg/kg) once daily on the very day of LPS dosing and thereafter. Then, MTX dissolved in 5 ml of 0.5% methyl cellulose solution was used. For the control group, 5 ml of 0.5% methyl cellulose solution was arranged.
# Concerning four items, namely arthritis score, leg edema, body weight change and feed intake, assessment was done per each group of five animals.
# [2] = tested on: adhesion of human fibroblast TIG-7 to CHO/OPN-a; experiment: Inhibition of TIG-7 cell adhesion to OPN; format: cell-based; settings: peptide 100 μg/ml, FIG. 1A
# Protocol: (§1) It was examined by the following method as to whether or not the murine monoclonal antibodies inhibited cell adhesion to OPN. First, a 96-well plate was precoated with various concentrations of the CHO/OPN-a at 4° C. overnight, which was then treated with 0.5% BSA in PBS under conditions of 37° C. for 10 minutes, so as to block non-specific adhesion. A human fibroblast TIG-7 or SW480 cell transformed with the cDNA of an integrin subunit α9 (referred to as “α9-transformed SW480 cell” hereinafter) was suspended in D-MEM containing 0.25% BSA; 200 μl of the resulting cell suspension (at a cell concentration of 5×10^4 cells/well) was injected in a 96-well plate precoated with the CHO/OPN-a or nOPN, in the presence or absence of various concentrations of the monoclonal antibodies or synthetic peptides, for incubation at 37° C. for one hour.
# (§2) The culture medium was discarded from the plate, and all the wells were rinsed twice with D-MEM containing 0.25% BSA. The adherent cells were fixed and stained with 0.5% crystal violet in 20% methanol for 30 minutes.
# All the wells were rinsed three times with water, and the adherent cells were then solubilized into 20% acetic acid. The resulting supernatant recovered from each well was analyzed with an immunoreader, to measure the absorbance at 590 nm to determine the relative count of the cells adhering to the well. All the assays were done in a triplicate fashion, and at least three independent experiments were performed. The values shown represent mean at three independent experiments.
# [3] = tested on: adhesion of α9-transformed SW480 cell to nOPN; experiment: Adhesion of α9-transformed SW480 cell to nOPN; format: cell-based, human; settings: 3 μg/ml nOPN, combination of 200 μM GRGDSP peptide and anti-α9β1 antibody Y9A2, FIG. 2A
# Protocol: as §1, §2
# All the wells were rinsed three times with water, and the adherent cells were then solubilized into 20% acetic acid. The resulting supernatant recovered from each well was analyzed with an immunoreader, to measure the absorbance at 590 nm to determine the relative count of the cells adhering to the well. […]
# [4] = tested on: adhesion of α9-transformed SW480 cell to vitronectin; experiment: Adhesion of α9-transformed SW480 cell to vitronectin; format: cell-based, human; settings: 1 μg/ml vitronectin, 200 μM peptide, FIG. 2A
# [5] = tested on: adhesion of murine NIH 3T3 cell to mOPN/de-GST; experiment: Inhibition of NIH 3T3 cell adhesion to murine OPN; format: cell-based, mouse; settings: peptide 100 μg/mL, FIG. 15
# Description: It was examined by the method described in the reference (S. Kon et al., (2002): J. Cell. Biochem., 84(2), 420–432) as to whether or not the M5 antibody might inhibit cell adhesion to OPN. As the OPN, the full-length murine OPN was used, from which the GST segment had preliminarily been removed with PreScission protease (Amersham Pharmacia Biotech, Tokyo, Japan) (referred to as “mOPN/de-GST” hereinafter) was used. As the cell, murine NIH 3T3 cell was used.
# [6] = tested on: human peripheral monocyte migration toward thrombin-cleaved OPN; experiment: Migration of TNF-α-activated human peripheral monocyte toward thrombin-cleaved OPN (chimera 2K1); format: cell-based; settings: for Mean migrating cell counts per 1 mm^3 (monocyte): thrombin-cleaved OPN 10 μg/mL
# Protocol: First, the blood drawn out from a normal subject with heparin was diluted 2-fold with an RPMI 1640 culture medium. The diluted blood was overlaid on the Ficoll-Paque (Pharmacia), which was then centrifuged at 400×g at ambient temperature for 30 minutes. A white layer observed in the interface between the blood plasma and Ficoll-Paque was recovered and used as a monocyte. The monocyte thus obtained was overnight cultured with human TNF-α (20 ng/mL). The resulting activated monocyte was used for a migration experiment.
# The migration experiment was done, using a 48-well microchemotaxis chamber (Neuro Probe Inc.). Human OPN reacted with bovine thrombin (Sigma) at 37° C. for 2 hours, for cleavage. After various concentrations of the 2K1 chimera antibody were added to the resulting human […] and left to stand at 37° C. for 15 minutes, the resulting mixture was added to the lower chamber (the final human OPN concentration was 10 μg/mL). Placing a polycarbonate filter (pore size of 5 μm) thereon, 50 μl of a cell suspension (2×10^6 cells/mL) was added to the upper chamber.
# After culturing in the presence of 5% CO2 at 37° C. for 2 hours, the polycarbonate filter was removed, while […] with Diff-Quick (Baxter). The cells on the surface of the […] filter were counted at a magnification×40. The results are shown as mean cell count (cells/mm^3)±SD in 6 wells.
# [7] = molecular target: partial peptide GRGDSVVYGLR of the human osteopontin (Homo sapiens, UniProt P10451); experiment: KD assay on BIACORE-2000; format: binding; settings: compared with murine 2K1 antibody
# Protocol: The KD value of the chimera 2K1 antibody was assayed in the following manner. First, a partial peptide GRGDSVVYGLR (residues 7–17 of SEQ ID NO: 1) of the human osteopontin was biotinylated with a biotinylation kit (Dojindo Corporate). A sensor chip SA was set on BIACORE-2000, to bind 23 RU of a ligand (Bin-GRGDSVVYGLR)(residues 7–17 of SEQ ID NO: 1). […] The data of these sensor grams were analyzed by global fitting at 1:1 (Langmuir) binding by a BIACORE analysis software BIA Evaluation Version 3.0. FIG. 6a is a sensor gram at various concentrations of the murine 2K1 antibody. FIG. 6b is a sensor gram at various concentrations of the chimera 2K1 antibody.
# [8] = molecular target: BSA-crosslinked osteopontin peptide (BSA-CVDTYDGRGDSVVYGLRS) (Homo sapiens, UniProt P10451); experiment: ELISA binding to osteopontin peptide
# Description: Based on the concentrations of the humanized 2K1 antibody and the chimera 2K1 antibody as determined in Example 13, the binding activities of the humanized 2K1 antibody and the chimera 2K1 antibody with osteopontin peptide (CVDTYDGRGDSVVYGLRS) (SEQ ID NO: 1) were compared with reference to the ELISA of Kon et al. (Journal of Cellular […]: 420–432 (2002)).
# Dilution series of the humanized 2K1 antibody and the chimera 2K1 antibody reacted on a microtiter plate with BSA-crosslinked osteopontin peptide (BSA-CVDTYDGRGDSVVYGLRS)(SEQ ID NO: 1) immobilized thereon. Then, the antibodies bound to BSA-CVDTYDGRGDSVVYGLRS (SEQ ID NO: 1) reacted with protein A-HRP, and finally with TMB (Dojindo Corporate), to measure the absorbance at a wavelength of 450 nm.
# Additionally, reaction on a plate with only BSA immobilized thereon as a negative control was also measured in the same manner.
# As a negative control, additionally, the binding activity of the chimera 2K1 antibody to BSA (open circle) and the binding activity of the humanized 2K1 antibody to BSA (open square) are also shown.
molecule,measurement,setting,value
CN(Cc1cnc2nc(N)nc(N)c2n1)c1ccc(C(=O)N[C@@H](CCC(=O)O)C(=O)O)cc1 [MTX],"effect on arthritis score, onset of arthritis and leg edema (therapeutic effect)",[1],almost no pharmaceutical efficacy
GRGDSP [reference compound],inhibition of TIG-7 adhesion to OPN,[2],apparently inhibited
same,inhibition of adhesion of α9-transformed SW480 cell to nOPN,[3],inhibited
same,inhibition of adhesion between vitronectin and α9-transformed SW480 cell,[4],inhibited
same,inhibition of NIH 3T3 adhesion to mOPN/de-GST,[5],apparently inhibited
"chimera 2K1 antibody: VH and VL of murine 2K1 antibody (SEQ ID NO: 19, 20) conjugated to human Igγ1 and human Igκ (antibody, V domains shown, human IgG1 and kappa constant regions; Mouse) VH: QVQLQQSGAELVRPGASVKLSCKALGYTFTDYEMHWVKQTPVHGLEWIGAIHPGRGGTAYNQKFKGKATLTADKSSSTAYMELSSLTSEDSAVYYCTRITGYFDVWGAGTTVTVSS VL: DVLMTQTPLSLPVSLGDQASISCRSSQSIVHSNGNTYLEWYLQKPGQSPKLLIYKVSNRFSGVPDRFSGSGSGTDFTLKISRVEAEDLGVYYCFQGSHVPLTFGAGTKLELKR",inhibition of migration of TNF-α-activated human peripheral neutrophil and monocyte toward thrombin-cleavage-type OPN,[6]; summary of Table 3,inhibited
same,Mean migrating cell counts per 1 mm^3 (monocyte),[6]; antibody 12.5 μ/mL,1010.0 ± 59.1 counts per 1 mm^3
same,Mean migrating cell counts per 1 mm^3 (monocyte),[6]; antibody 25 μ/mL,1153.3 ± 96.2 counts per 1 mm^3
same,Mean migrating cell counts per 1 mm^3 (monocyte),[6]; antibody 50 μ/mL,895.0 ± 78.0 counts per 1 mm^3
same,Mean migrating cell counts per 1 mm^3 (monocyte),[6]; antibody 100 μ/mL,821.7 ± 50.2 counts per 1 mm^3
same,Mean migrating cell counts per 1 mm^3 (monocyte),[6]; antibody 250 μ/mL,865.0 ± 64.9 counts per 1 mm^3
same,Mean migrating cell counts per 1 mm^3 (monocyte),[6]; antibody 500 μ/mL,830.0 ± 44.1 counts per 1 mm^3
same,reduction of the affinity due to the chimera preparation,[7],No reduction
same,binding activity to BSA-CVDTYDGRGDSVVYGLRS,"[8]; ELISA, absorbance 450 nm, FIG. 13",had binding activities
same,binding activity to BSA (negative control plate),"[8]; ELISA, plate with only BSA immobilized",not to BSA
same,comparison of binding activities of both antibodies to BSA-CVDTYDGRGDSVVYGLRS,[8]; humanized versus chimera 2K1 antibody,at the same level
